Test results reported in US20120100140A1.

Tests used:
[1] = target: CD64 (FcγRI) (UniProt P12314); test: solution affinity SPR: antibody titrated into CD64, inhibition of CD64 binding to immobilized IgG1 MAb; average of two titrations
[2] = target: CD64 (FcγRI) (UniProt P12314); test: solution affinity SPR: inhibition of CD64 binding to immobilized IgG1 MAb
[3] = target: CD16 (FcγRIIIa V158) (UniProt P08637); test: solution affinity SPR: antibody titrated into CD16, inhibition of CD16 binding to immobilized IgG1 MAb; average of two titrations
Chain of CD16 (FcγRIIIa V158) (P08637 17-208 F176V limits assumed): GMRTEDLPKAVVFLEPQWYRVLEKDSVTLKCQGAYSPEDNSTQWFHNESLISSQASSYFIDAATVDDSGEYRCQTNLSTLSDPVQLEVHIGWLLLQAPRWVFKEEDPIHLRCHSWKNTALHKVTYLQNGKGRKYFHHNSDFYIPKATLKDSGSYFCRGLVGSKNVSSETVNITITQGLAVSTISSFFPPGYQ

Chain of CD64 (FcγRI) (P12314 16-288 limits assumed): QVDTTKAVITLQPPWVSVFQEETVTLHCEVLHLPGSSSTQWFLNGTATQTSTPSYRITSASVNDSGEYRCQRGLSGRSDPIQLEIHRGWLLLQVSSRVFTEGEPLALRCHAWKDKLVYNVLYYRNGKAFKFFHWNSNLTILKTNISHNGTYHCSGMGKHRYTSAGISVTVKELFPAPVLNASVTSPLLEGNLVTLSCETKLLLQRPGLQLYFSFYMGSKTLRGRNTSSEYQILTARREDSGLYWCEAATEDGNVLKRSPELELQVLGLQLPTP

IC50 [1] | IC50 [2] | IC50 [3] | Binder
434 µM |  |  | YC403 (hu5c8 aglycosylated IgG4.P S228P, T299A, T307P, L309K, D399S) (antibody, chain 1 pos 1: N-terminal Gln largely converted to pyroglutamate, written Q; Fc aglycosylated) heavy: QVQLVQSGAEVVKPGASVKLSCKASGYIFTSYYMYWVKQAPGQGLEWIGEINPSNGDTNFNEKFKSKATLTVDKSASTAYMELSSLRSEDTAVYYCTRSDGRNDMDSWGQGTLVTVSSASTKGPSVFPLAPCSRSTSESTAALGCLVKDYFPEPVTVSWNSGALTSGVHTFPAVLQSSGLYSLSSVVTVPSSSLGTKTYTCNVDHKPSNTKVDKRVESKYGPPCPPCPAPEFLGGPSVFLFPPKPKDTLMISRTPEVTCVVVDVSQEDPEVQFNWYVDGVEVHNAKTKPREEQFNSAYRVVSVLPVKHQDWLNGKEYKCKVSNKGLPSSIEKTISKAKGQPREPQVYTLPPSQEEMTKNQVSLTCLVKGFYPSDIAVEWESNGQPENNYKTTPPVLSSDGSFFLYSRLTVDKSRWQEGNVFSCSVMHEALHNHYTQKSLSLSLG light: DIVLTQSPATLSVSPGERATISCRASQRVSSSTYSYMHWYQQKPGQPPKLLIKYASNLESGVPARFSGSGSGTDFTLTISSVEPEDFATYYCQHSWEIPPTFGGGTKLEIKRTVAAPSVFIFPPSDEQLKSGTASVVCLLNNFYPREAKVQWKVDNALQSGNSQESVTEQDSKDSTYSLSSTLTLSKADYEKHKVYACEVTHQGLSSPVTKSFNRGEC
377 µM |  |  | YC401 (hu5c8 aglycosylated IgG4.P S228P, T299A, T307P, D399S) (antibody, chain 1 pos 1: N-terminal Gln largely converted to pyroglutamate, written Q; Fc aglycosylated) heavy: QVQLVQSGAEVVKPGASVKLSCKASGYIFTSYYMYWVKQAPGQGLEWIGEINPSNGDTNFNEKFKSKATLTVDKSASTAYMELSSLRSEDTAVYYCTRSDGRNDMDSWGQGTLVTVSSASTKGPSVFPLAPCSRSTSESTAALGCLVKDYFPEPVTVSWNSGALTSGVHTFPAVLQSSGLYSLSSVVTVPSSSLGTKTYTCNVDHKPSNTKVDKRVESKYGPPCPPCPAPEFLGGPSVFLFPPKPKDTLMISRTPEVTCVVVDVSQEDPEVQFNWYVDGVEVHNAKTKPREEQFNSAYRVVSVLPVLHQDWLNGKEYKCKVSNKGLPSSIEKTISKAKGQPREPQVYTLPPSQEEMTKNQVSLTCLVKGFYPSDIAVEWESNGQPENNYKTTPPVLSSDGSFFLYSRLTVDKSRWQEGNVFSCSVMHEALHNHYTQKSLSLSLG light: DIVLTQSPATLSVSPGERATISCRASQRVSSSTYSYMHWYQQKPGQPPKLLIKYASNLESGVPARFSGSGSGTDFTLTISSVEPEDFATYYCQHSWEIPPTFGGGTKLEIKRTVAAPSVFIFPPSDEQLKSGTASVVCLLNNFYPREAKVQWKVDNALQSGNSQESVTEQDSKDSTYSLSSTLTLSKADYEKHKVYACEVTHQGLSSPVTKSFNRGEC
2600 µM |  |  | EC331 (hu5c8 aglycosylated IgG4.P T299K, T307P with IgG1 CH3) (antibody, chain 1 pos 1: N-terminal Gln largely converted to pyroglutamate, written Q; Fc aglycosylated) heavy: QVQLVQSGAEVVKPGASVKLSCKASGYIFTSYYMYWVKQAPGQGLEWIGEINPSNGDTNFNEKFKSKATLTVDKSASTAYMELSSLRSEDTAVYYCTRSDGRNDMDSWGQGTLVTVSSASTKGPSVFPLAPCSRSTSESTAALGCLVKDYFPEPVTVSWNSGALTSGVHTFPAVLQSSGLYSLSSVVTVPSSSLGTKTYTCNVDHKPSNTKVDKRVESKYGPPCPPCPAPEFLGGPSVFLFPPKPKDTLMISRTPEVTCVVVDVSQEDPEVQFNWYVDGVEVHNAKTKPREEQFNSKYRVVSVLPVLHQDWLNGKEYKCKVSNKGLPSSIEKTISKAKGQPREPQVYTLPPSRDELTKNQVSLTCLVKGFYPSDIAVEWESNGQPENNYKTTPPVLDSDGSFFLYSKLTVDKSRWQQGNVFSCSVMHEALHNHYTQKSLSLSPG light: DIVLTQSPATLSVSPGERATISCRASQRVSSSTYSYMHWYQQKPGQPPKLLIKYASNLESGVPARFSGSGSGTDFTLTISSVEPEDFATYYCQHSWEIPPTFGGGTKLEIKRTVAAPSVFIFPPSDEQLKSGTASVVCLLNNFYPREAKVQWKVDNALQSGNSQESVTEQDSKDSTYSLSSTLTLSKADYEKHKVYACEVTHQGLSSPVTKSFNRGEC
7.56 µM | 8 µM | 380 µM | EC326 (hu5c8 IgG4.P S228P, T307P, L309K, D399S, glycosylated) (antibody, heavy chain pos 1: Gln largely converted to pyroglutamate (Table 3.3), written Q; N-linked glycan (G0F, G1F, G2F, G0) at EU N297 = heavy chain pos 295) heavy: QVQLVQSGAEVVKPGASVKLSCKASGYIFTSYYMYWVKQAPGQGLEWIGEINPSNGDTNFNEKFKSKATLTVDKSASTAYMELSSLRSEDTAVYYCTRSDGRNDMDSWGQGTLVTVSSASTKGPSVFPLAPCSRSTSESTAALGCLVKDYFPEPVTVSWNSGALTSGVHTFPAVLQSSGLYSLSSVVTVPSSSLGTKTYTCNVDHKPSNTKVDKRVESKYGPPCPPCPAPEFLGGPSVFLFPPKPKDTLMISRTPEVTCVVVDVSQEDPEVQFNWYVDGVEVHNAKTKPREEQFNSTYRVVSVLPVKHQDWLNGKEYKCKVSNKGLPSSIEKTISKAKGQPREPQVYTLPPSQEEMTKNQVSLTCLVKGFYPSDIAVEWESNGQPENNYKTTPPVLSSDGSFFLYSRLTVDKSRWQEGNVFSCSVMHEALHNHYTQKSLSLSLG light: DIVLTQSPATLSVSPGERATISCRASQRVSSSTYSYMHWYQQKPGQPPKLLIKYASNLESGVPARFSGSGSGTDFTLTISSVEPEDFATYYCQHSWEIPPTFGGGTKLEIKRTVAAPSVFIFPPSDEQLKSGTASVVCLLNNFYPREAKVQWKVDNALQSGNSQESVTEQDSKDSTYSLSSTLTLSKADYEKHKVYACEVTHQGLSSPVTKSFNRGEC
